Assay results as given in US20070232789A1.

Legend:
[1] = biological target: low-density lipoprotein receptor-related protein (LRP), purified (human) (UniProt Q07954); assay: homologous ligand displacement: 125I-fVIII (1 nM) on LRP-coated microtiter wells, competitor unlabeled fVIII
Target sequence in this assay (Q07954 20-4544): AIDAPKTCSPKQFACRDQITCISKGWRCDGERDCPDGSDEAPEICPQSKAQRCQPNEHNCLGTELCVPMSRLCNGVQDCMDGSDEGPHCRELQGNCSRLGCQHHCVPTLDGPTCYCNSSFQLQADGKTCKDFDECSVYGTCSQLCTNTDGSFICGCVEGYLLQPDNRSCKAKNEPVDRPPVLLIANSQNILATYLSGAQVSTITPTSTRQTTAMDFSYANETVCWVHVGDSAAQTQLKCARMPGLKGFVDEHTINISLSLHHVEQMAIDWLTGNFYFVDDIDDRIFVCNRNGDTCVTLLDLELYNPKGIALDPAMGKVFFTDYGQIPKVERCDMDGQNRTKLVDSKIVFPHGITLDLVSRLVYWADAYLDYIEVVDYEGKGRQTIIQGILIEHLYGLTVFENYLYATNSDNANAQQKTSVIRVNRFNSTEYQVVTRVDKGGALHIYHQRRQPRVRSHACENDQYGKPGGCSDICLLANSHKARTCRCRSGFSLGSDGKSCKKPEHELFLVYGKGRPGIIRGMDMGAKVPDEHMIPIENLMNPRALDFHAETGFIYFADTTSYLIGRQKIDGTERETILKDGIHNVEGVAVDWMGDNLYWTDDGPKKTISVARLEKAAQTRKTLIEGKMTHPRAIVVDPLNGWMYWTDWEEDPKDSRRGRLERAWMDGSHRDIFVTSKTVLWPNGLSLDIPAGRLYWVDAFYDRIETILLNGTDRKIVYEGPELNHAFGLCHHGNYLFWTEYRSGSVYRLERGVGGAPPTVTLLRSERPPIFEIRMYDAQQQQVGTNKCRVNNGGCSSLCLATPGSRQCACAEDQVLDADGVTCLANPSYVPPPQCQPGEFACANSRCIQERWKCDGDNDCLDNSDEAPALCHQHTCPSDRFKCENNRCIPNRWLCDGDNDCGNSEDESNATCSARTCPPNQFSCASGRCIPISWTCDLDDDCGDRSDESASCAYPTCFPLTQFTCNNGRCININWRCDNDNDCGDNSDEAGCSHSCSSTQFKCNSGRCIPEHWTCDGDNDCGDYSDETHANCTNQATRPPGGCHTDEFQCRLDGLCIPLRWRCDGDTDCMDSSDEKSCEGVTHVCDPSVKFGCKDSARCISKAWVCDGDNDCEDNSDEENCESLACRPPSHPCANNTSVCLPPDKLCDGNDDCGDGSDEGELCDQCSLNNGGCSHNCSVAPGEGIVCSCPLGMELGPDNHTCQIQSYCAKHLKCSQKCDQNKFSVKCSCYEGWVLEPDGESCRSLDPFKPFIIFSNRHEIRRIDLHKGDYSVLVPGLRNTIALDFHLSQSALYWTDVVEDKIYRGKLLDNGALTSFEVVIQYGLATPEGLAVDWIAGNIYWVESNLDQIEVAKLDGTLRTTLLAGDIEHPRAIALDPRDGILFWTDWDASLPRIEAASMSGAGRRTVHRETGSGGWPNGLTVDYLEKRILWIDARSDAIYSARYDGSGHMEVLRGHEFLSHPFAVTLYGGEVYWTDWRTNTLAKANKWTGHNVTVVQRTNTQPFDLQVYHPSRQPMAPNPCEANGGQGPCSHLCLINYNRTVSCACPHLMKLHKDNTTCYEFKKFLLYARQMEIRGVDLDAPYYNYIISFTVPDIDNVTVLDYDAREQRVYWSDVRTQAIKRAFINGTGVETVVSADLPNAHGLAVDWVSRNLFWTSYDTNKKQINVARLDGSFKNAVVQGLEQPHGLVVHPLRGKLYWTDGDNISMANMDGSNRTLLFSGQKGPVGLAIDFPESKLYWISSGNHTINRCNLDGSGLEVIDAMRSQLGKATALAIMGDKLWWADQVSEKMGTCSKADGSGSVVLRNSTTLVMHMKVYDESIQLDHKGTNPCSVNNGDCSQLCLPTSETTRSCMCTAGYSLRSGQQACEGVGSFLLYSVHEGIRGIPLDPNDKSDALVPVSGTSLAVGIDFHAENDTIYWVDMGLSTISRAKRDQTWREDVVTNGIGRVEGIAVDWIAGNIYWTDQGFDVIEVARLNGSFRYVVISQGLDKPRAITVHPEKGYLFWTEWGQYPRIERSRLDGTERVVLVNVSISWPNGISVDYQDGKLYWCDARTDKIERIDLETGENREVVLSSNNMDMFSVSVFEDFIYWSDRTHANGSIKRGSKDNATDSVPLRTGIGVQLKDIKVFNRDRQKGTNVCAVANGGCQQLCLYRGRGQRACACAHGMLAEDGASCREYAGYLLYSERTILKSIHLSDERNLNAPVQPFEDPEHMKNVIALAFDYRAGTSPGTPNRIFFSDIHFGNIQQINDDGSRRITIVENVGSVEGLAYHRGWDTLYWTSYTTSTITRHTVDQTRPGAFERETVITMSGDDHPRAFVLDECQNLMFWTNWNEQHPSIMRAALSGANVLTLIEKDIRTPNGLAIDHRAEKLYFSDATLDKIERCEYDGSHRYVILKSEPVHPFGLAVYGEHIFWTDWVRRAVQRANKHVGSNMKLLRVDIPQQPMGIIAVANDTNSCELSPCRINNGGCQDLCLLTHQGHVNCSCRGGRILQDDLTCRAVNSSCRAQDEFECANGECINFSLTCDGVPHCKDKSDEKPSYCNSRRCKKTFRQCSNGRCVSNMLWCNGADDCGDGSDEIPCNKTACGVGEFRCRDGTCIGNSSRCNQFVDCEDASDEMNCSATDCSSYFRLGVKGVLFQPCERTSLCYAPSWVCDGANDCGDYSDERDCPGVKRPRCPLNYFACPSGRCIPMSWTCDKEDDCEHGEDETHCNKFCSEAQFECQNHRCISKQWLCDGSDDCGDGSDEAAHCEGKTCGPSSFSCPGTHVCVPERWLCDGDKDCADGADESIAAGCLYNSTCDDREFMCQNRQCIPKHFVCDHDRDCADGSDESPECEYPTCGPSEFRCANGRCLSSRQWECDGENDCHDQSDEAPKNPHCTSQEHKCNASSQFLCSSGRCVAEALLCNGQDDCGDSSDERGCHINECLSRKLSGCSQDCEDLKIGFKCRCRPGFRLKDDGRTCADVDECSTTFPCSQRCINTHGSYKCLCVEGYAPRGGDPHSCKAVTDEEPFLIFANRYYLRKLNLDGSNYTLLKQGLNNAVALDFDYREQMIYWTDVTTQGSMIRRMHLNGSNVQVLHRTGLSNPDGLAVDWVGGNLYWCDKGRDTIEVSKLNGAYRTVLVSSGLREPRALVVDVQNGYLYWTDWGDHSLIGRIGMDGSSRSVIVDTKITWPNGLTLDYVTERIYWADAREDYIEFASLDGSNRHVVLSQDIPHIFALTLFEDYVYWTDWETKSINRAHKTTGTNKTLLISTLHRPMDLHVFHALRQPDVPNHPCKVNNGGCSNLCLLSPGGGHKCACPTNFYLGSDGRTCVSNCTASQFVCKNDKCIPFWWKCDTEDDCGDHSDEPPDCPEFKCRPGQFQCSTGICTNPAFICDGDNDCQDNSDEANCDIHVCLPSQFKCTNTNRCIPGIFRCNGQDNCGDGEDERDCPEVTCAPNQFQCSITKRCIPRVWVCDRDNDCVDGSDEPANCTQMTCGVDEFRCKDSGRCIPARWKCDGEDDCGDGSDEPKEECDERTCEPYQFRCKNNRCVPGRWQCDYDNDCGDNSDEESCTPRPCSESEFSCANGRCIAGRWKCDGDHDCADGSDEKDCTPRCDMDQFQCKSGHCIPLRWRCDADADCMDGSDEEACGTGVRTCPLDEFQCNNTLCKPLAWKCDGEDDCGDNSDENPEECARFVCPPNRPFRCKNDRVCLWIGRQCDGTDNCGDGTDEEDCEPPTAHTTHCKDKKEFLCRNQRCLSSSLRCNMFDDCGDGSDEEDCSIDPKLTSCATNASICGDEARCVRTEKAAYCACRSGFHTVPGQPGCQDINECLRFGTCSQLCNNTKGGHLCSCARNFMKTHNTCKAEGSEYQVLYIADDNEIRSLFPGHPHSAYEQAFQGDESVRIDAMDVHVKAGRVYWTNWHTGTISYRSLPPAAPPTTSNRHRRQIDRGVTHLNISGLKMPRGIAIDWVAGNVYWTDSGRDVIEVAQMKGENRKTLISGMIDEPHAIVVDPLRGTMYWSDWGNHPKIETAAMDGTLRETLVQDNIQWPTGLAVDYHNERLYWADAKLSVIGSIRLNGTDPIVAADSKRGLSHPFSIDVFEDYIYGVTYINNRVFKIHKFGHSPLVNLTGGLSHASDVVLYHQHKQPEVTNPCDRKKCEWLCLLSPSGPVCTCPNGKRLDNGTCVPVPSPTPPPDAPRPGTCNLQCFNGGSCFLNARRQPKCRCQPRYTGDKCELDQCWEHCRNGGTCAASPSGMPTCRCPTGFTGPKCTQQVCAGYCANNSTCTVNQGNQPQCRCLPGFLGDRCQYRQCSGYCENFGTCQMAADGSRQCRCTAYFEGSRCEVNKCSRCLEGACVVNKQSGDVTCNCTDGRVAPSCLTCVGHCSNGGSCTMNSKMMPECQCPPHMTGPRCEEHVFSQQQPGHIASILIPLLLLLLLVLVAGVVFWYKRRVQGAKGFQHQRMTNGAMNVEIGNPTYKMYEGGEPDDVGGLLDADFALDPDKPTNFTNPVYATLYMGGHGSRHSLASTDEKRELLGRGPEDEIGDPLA

[2] = biological target: low-density lipoprotein receptor-related protein (LRP), purified (human) (UniProt Q07954); assay: homologous displacement of ^125I-fVIII (1 nM) by unlabeled fVIII on LRP-coated wells, LIGAND fit
Target sequence in this assay (Q07954 20-4544): as above

[3] = biological target: low-density lipoprotein receptor-related protein (LRP), purified (human) (UniProt Q07954); assay: homologous displacement on LRP-coated wells
Target sequence in this assay (Q07954 20-4544): as above

[4] = biological target: low-density lipoprotein receptor-related protein (LRP), purified (human) (UniProt Q07954); assay: SPR, BIAcore 3000
Target sequence in this assay (Q07954 20-4544, form in doubt): as the sequence (Q07954 20-4544) above

[5] = biological target: A1/A3-C1-C2 heterodimer of factor VIII, plasma-derived (human) (UniProt P00451); assay: cell-based or functional assay
[6] = biological target: low-density lipoprotein receptor-related protein (LRP), purified (human) (UniProt Q07954); assay: SPR, BIAcore 3000, one-site model, KD = koff/kon
Target sequence in this assay (Q07954 20-4544, form in doubt): as the sequence (Q07954 20-4544) above

IC50 (read off the curve) [1]	Kd [2]	percent of binding competed by an excess of unlabeled fVIII [3]	fold decrease of affinity against wt-A2 [4]	Activity of reconstituted FVIIIa (% of wt activity) (% of wt activity) [5]	Kd [6]	Substance
100 nM	116 nM	> 90%				factor VIII purified from therapeutic concentrates (Method M, American Red Cross), P00451 20-1667; P00451 1668-2351
			28 fold	130	600 nM	recombinant A2 mutant #5 (Lys-466 to Ala) (from UniProt P00451 392-759)
				291	47 nM	recombinant A2 mutant #4 (Lys-380 to Ala) (from UniProt P00451 392-759)
				365	18 nM	recombinant A2 mutant #2 (Lys-377 to Ala) (from UniProt P00451 392-759)
				417	19 nM	recombinant A2 mutant #3 (His-378 to Ala) (from UniProt P00451 392-759)
			15 fold	64.9	320 nM	recombinant A2 mutant #7 (Arg-484 to Ala) (from UniProt P00451 392-759)
			19 fold	34.6	400 nM	recombinant A2 mutant #6 (Arg-471 to Ala) (from UniProt P00451 392-759)
